Assay results as given in paper PMC8382222 (2021).

B1: vascular endothelial growth factor (Recombinant Human VEGF165) (ligand)
chain: APMAEGGGQNHHEVVKFMDVYQRSYCHPIETLVDIFQEYPDEIEYIFKPSCVPLMRCGGCCNDEGLECVPTEESNITMQIMRIKPHQGQHIGEMSFLQHNKCECRPKKDRARQENPCGPCSERRKHLFVQDPQTCKCSCKNTDSRCKARQLELNERTCRCDKPRR
B2: C-reactive protein (CRP) (natural protein)
chain: QTDMSRKAFVFPKESDTSYVSLKAPLTKPLKAFTVCLHFYTELSSTRGYSIFSYATKRQDNEILIFWSKDIGYSFTVGGSEILFEVPEVTVAPVHICTSWESASGIVEFWVDGKPRVRKSLKKGYTVGAEASIILGQEQDSFGGNFEGSQSLVGDIGNVNMWDFVLSPDEINTIYLGGPFSPNVLNWRALKYEVQGEVFTKPQLWP

Legend:
VEGF-114 peptide = VEGF-114 peptide (C-terminal amide (amidate version); cyclized); assay: SPR
CRP-1 peptide = CRP-1 peptide (C-terminal amide (amidate version); cyclized); assay: SPR

| Binder | Kd (VEGF-114 peptide) [µM] | koff (VEGF-114 peptide) [s⁻¹] | Kd (CRP-1 peptide) [µM] | koff (CRP-1 peptide) [s⁻¹] |
| --- | --- | --- | --- | --- |
| B1 | 10.3 | 0.75 | – | – |
| B2 | – | – | 12 | 0.046 |
